Assay [1] has as its target T1, fusion protein DBD-mdm2 (GAL4 DBD fused to the entire Mdm2 human protein) (Saccharomyces cerevisiae; human, UniProt P04386 1-147; Q00987 1-491, limits assumed).
T1 construct: also called pDBT-mdm2
Nature of the assay: yeast two-hybrid control (pTAL20+pDBT-mdm2), URA3 reporter in strain Y187.
Experimental: (§1) The activity of the constructs is first verified (FIGS. 6A and 6F). […] Two clones of each of these transformants are cultured on minimum medium with and without uracil ((FIGS. 6A and 6F).

Assay [2] addresses T2, DNA-binding domain (DBD) of GAL4p expressed alone from pDBT (Saccharomyces cerevisiae, UniProt P04386 1-147, limits assumed).
T2 construct: Negative control partner
Put plainly: reverse two-hybrid UI strain yRB49; growth not affected on medium with 1 mM 3-AT.

Assay [3] concerns the target T2, DNA-binding domain (DBD) of GAL4p …. Nature of the assay: yeast two-hybrid control (pRB34+pDBT), URA3 reporter in strain Y187.
Experimental: as §1
Firstly, the activity of the constructs was verified. […] Two clones cotransformed by each of these pairs of plasmids are selected. Their capacity to grow on minimum medium with and without uracil is studied.

B1: activation domain (AD) of GAL4p expressed alone from pTAL20 (other, Saccharomyces cerevisiae, UniProt P04386 768-881, looked up)
chain: ANFNQSGNIADSSLSFTFTNSSNGPNLITTQTNSQALSQPIASSNVHDNFMNNEITASKIDDGNNSKPLSPGWTDQTAYNAFGITTGMFNTTTMDDVYNYLFDDEDTPPNPKKE
notes: Negative control partner
For the molecule B1, the binding result in assay [1] and in assay [2] was “no binding” throughout.

B2: fusion protein AD-Fe65 (GAL4 activation domain fused to amino acids 152 to 708 of Fe65) (other)
chain: MDKAELIPEPPKKKRKVELGTAANFNQSGNIADSSLSFTFTNSSNGPNLITTQTNSQALSQPIASSNVHDNFMNNEITASKIDDGNNSKPLSPGWTDQTAYNAFGITTGMFNTTTMDDVYNYLFDDEDTPPNPKKEIEFKAAGEAEEEEEDDDDEEEEEDLSSPPGLPEPLESVEAPPRPQALTDGPREHSKSASLLFGMRNSAASDEDSSWATLSQGSPSYGSPEDTDSFWNPNAFETDSDLPAGWMRVQDTSGTYYWHIPTGTTQWEPPGRASPSQGSSPQEESQLTWTGFAHGEGFEDGEFWKDEPSDEAPMELGLKEPEEGTLTFPAQSLSPEPLPQEEEKLPPRNTNPGIKCFAVRSLGWVEMTEEELAPGRSSVAVNNCIRQLSYHKNNLHDPMSGGWGEGKDLLLQLEDETLKLVEPQSQALLHAQPIISIRVWGVGRDSGRDFAYVARDKLTQMLKCHVFRCEAPAKNIATSLHEICSKIMAERRNARCLVNGLSLDHSKLVDVPFQVEFPAPKNELVQKFQVYYLGNVPVAKPVGVDVINGALESVLSSSSREQWTPSHVSVAPATLTILHQQTEAVLGECRVRFLSFLAVGRDVHTFAFIMAAGPASFCCHMFWCEPNAASLSEAVQAACMLRYQKCLDARSQASTSCLPAPPAESVARRVGWTVRRGVQSLWGSLKPKRLGAHTP
notes: also called pRB34
In the case of B2, the binding result in assay [3] is “no binding”.

The record behind these values is patent publication US20090005253A1 (AVENTIS PHARMA S A, published 2009).
